The test has as its target MK-1654 IgG (human). Kind of test: SPR; Biacore 8K+; MK-1654 IgG captured on a Protein A chip (about 110 RU); 1A6 or 1D4 Fab flowed at 0.4-128 nM, 60 s contact and 60 s dissociation, 30 µL/min; global 1:1 fit; KD = koff/kon; averages of three runs. On the technique in general: In SPR one partner is held on a chip, and binding of the other changes the refractive index at the surface.

Chain of MK-1654 IgG (human) (heavy, as listed by the source, chain 1 of 2): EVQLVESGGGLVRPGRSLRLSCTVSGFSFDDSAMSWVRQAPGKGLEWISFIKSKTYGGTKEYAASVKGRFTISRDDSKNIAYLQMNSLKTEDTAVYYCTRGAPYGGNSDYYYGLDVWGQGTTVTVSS
Chain of MK-1654 IgG (human) (light, as listed by the source, chain 2 of 2): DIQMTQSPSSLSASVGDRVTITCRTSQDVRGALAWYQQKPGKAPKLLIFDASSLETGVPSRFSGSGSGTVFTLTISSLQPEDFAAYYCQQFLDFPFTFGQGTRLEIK

B1: 1D4 anti-idiotypic Fab (Fab, V domains shown)
VH: QVQLVESGGGLVQPGGSLRLSCAASGFTFSSSGLHWVRQAPGKGLEWVSGIDSSSSTTYYADSVKGRFTISRDNSKNTLYLQMNSLRAEDTAVYYCARYYFDVWGQGTLVTVSS
VL: DIELTQPPSVSVAPGQTARISCSGDSIGTYAYWYQQKPGQAPVLVIYADDNRPSGIPERFSGSNSGNTATLTISGTQAEDEADYYCSSWATDNAPVFGGGTKLTVL
In general, Kd refers to the constant that tells how readily two partners part at equilibrium. Low values mean a tighter complex, high ones a looser complex. By koff is commonly meant the first-order rate constant of dissociation. A high value points to fast dissociation. As usually defined, the kon is the second-order rate constant of association. In turn, B1 displayed a Kd of 3.75 nM, an off-rate constant (koff) of 0.013 s⁻¹ and an on-rate (kon) of 3.5e+06 M⁻¹ s⁻¹.

B2: 1A6 anti-idiotypic Fab (Fab, V domains shown)
VH: QVQLVESGGGLVQPGGSLRLSCAASGFTFSSYAMNWVRQAPGKGLEWVSLISGSGSSTYYADSVKGRFTISRDNSKNTLYLQMNSLRAEDTAVYYCARFHTHGGYFDIWGQGTLVTVSS
VL: DIALTQPASVSGSPGQSITISCTGTSSDIGAYTYGSWYQQHPGKAPKLMIYGVNNRPSGVSNRFSGSKSGNTASLTISGLQAEDEADYYCASFDFSVSGVVFGGGTKLTVL
Molecule B2 gave a dissociation constant (Kd) of 0.94 nM, an off-rate (koff) of 0.00628 s⁻¹ and an association rate constant (kon) of 6.67e+06 M⁻¹ s⁻¹.

The values are drawn from publication PMC11768756.
